The text below walks through data of the DeepSol protein solubility set.

This series is described as follows: soluble on expression in E. coli; label from the status in PepcDB or PDB records.
With “MEKKRVVITGLGAVTPVGTDVETAWENIKKGVSGIGRLTRIDPELFPAKVAAEINDFEVEKYIDKKEARRMDRFTQYAVAAAKMAVADAKLEITEENGPRIGVWIGSGIGGMETYEEQFKIFTEKGPRRVSPFFVPMMIPDMAAGQVSIATGAKGINTCSVTACASGANSIGDAFKAIQRGDADAMITGGAEAPLTSMAFAGFSSAKALTFNEDPATACRPFDKNRSGFVMGEGSGILILEELEHALARGAHIYAEIAGYGATGDAFHITMPAPGGEGGVRAMRQALADAGLQPEDIDYINAHGTSTDANEKYETMAIKETFGEHAYKVAISSTKSMTGHLLGAAGAVEAIFSIKSITDGVIPPTINYETPDPECDLDYVPNNARHQEVNAVLSNSLGFGGHNAVLVFKSYK”, the “soluble on expression in E. coli” value is “not soluble”. With “MKSMPTISRIQRIKEYLSKRKLSQRRKVGVLVDGPNMLRKEFNINLKEIREILSEYGDIKIAKVFLNQYATEKLVEAIENQGFEPIVTSGDVDVRMAVEAMELIYNDSIDAVALVTRDADFKAVLMKAMEMGKETIIIGAEPGFSTALKNSADIAIVLNEDEEKEKGDADEEEIIEV”, the “soluble on expression in E. coli” value was “not soluble”. Regarding “MGSDKIHHHHHHMFKLIIVEDEHLIRKWLEIAVDYSALGIQVVGTASHGQEGMKLIQEKEPHIVLTDITMPIMDAFMMFEATRTLSYEKVILSGYNDFQNAKKAMQYGAVDFLSKPIDTKELTECLQKIVLRLRVSTRQETPFLEEYQTLLTSIQQIDTQNQIIQQILEFVHQHYCMHFTISSIAENLGYSESYLYKVIKEDFPMTLNEYILRYRLKQAIDKMAESPNSPLSDISEQIGFSDYKYFAKVFKKYLHISPKELKLMDKNH”, the “soluble on expression in E. coli” value is recorded as “not soluble”. With “RPARQVRRLEFNQAMDDFKTMFPNMDYDIIECVLRANSGAVDATIDQLLQMNLE”, the “soluble on expression in E. coli” value is “soluble”. For “MGSDKIHHHHHHMSAHEMNHATPRLPAPLFVTGTDTGVGKTVVSLLLMRALFRRGMVPFYAKPMQTGCRDPYDTDSDAAFVYRHVPELAERDPAEAVGWCFRAPKAPLHAARDERNGVETEDLMRRLAILRATHACLVLEGAGGLMVPFTADALCVDCIRAADARPVLVARDGLGTVNHTLLSVEAMTRRGVTPAGIVFVASGKRPTPSDLVHDNMEAVAMLSGISVSGIVPPILDFHAPPEAALTVADAVIDAALGL”, the “soluble on expression in E. coli” value is “not soluble”. Regarding “MWTDAGGQVHEAASGDVRIASLVPSITELLFDLGLADQLVARTGFCIHPEPAVRAVAKVGGTKDVKLDRLRALAPTHVVVNIDENRRETVDEIRTFVPHVIVTHPCAPEDNLALYRLLGGIFGRRPQAEALVGQLRGELDAIQAQTWPARRVLYAIWQDPWMTVSRATYISRMLALVNWATWPDDADTSDTPAACVDGDCSRPNAPGERYPTFRWSDALVRELDAVLLSTEPYRFTEDHADALERQIGKPVLLVDGEMLSWYGSRAVAGARYLRSLAQGFLEHHHHHH”, the “soluble on expression in E. coli” value is given as “soluble”. As for “MLWHAMPPELNTARLMAGAGPAPMLAAAAGWQTLSAALDAQAVELTARLNSLGEAWTGGGSDKALAAATPMVVWLQTASTQAKTRAMQATAQAAAYTQAMATTPSLPEIAANHITQAVLTATNFFGINTIPIALTEMDYFIRMWNQAALAMEVYQAETAVNTLFEKLEPMASILDPGASQSTTNPIFGMPSPGSSTPVGQLPPAATQTLGQLGEMSGPMQQLTQPLQQVTSLFSQVGGTGGGNPADEEAAQMGLLGTSPLSNHPLAGGSGPSAGAGLLRAESLPGAGGSLTRTPLMSQLIEKPVAPSVMPAAAAGSSATGGAAPVGAGAMGQGAQSGGSTRPGLVAPAPLAQEREEDDEDDWDEEDDW”, the “soluble on expression in E. coli” value is “soluble”. “MGSDKIHHHHHHMGFLAREKVHLKKVVIGGSQDWLKHSYKLFKAIMNRIFGYGNKKSHDQLLQESNQSMNQAQQSLSNRISQLDTQIAQLNFQLQNIQKNLQRSNNKQPSLRKQALKILNKRKQLENMKDSLDSQSWSMTQAQLTNDNLQNTMITINALKQTNNAMKAQYGKINIDKLQDMQDEMLDLIEQGDELQEVLAMNNNSGELDDISDAELDAELDALAQEDFTLPTSENSLGNDMPSYLLGANAPPAFIDEEPNLDTEDKNKALESAQ”: the “soluble on expression in E. coli” value was “not soluble”.

With “MGHHHHHHSHMSEESDMDKAIKETSILEEYSINWTQKLGAGISGPVRVCVKKSTQERFALKILLDRPKARNEVRLHMMCATHPNIVQIIEVFANSVQFPHESSPRARLLIVMEMMEGGELFHRISQHRHFTEKQASQVTKQIALALRHCHLLNIAHRDLKPENLLFKDNSLDAPVKLCDFGFAKIDQGDLMTPQFTPYYVAPQVLEAQRRHQKEKSGIIPTSPTPYTYNKSCDLWSLGVIIYVMLCGYPPFYSKHHSRTIPKDMRRKIMTGSFEFPEEEWSQISEMAKDVVRKLLKVKPERRLTIEGVLDHPWLNSTEALDNVLPSAQLMMDKAVVAGIQQAHAEQLANMRIQDLKVSLKPLHSVNNPILRKRKLLGTKPKDSVYIHDHENGAEDSNVALEKLRDVIAQCILPQAGENEDEKLNEVMQEAWKYNRECKLLRDTLQSFSWNGRGFTDKVDRLKLAEIVKQVIEEQTTSHESQ”, the “soluble on expression in E. coli” value is “not soluble”.

Regarding “GSMSLNDFLSSVLPVSEQFEYLSLQSIPLETHAVVTPNKDDKRVPKSTIKTQHFFSLFHQGKVFFSLEVYVYVTLWDEADAERLIFVSKADTNGYCNTRVSVRDITKIILEFILSIDPNYYLQKVKPAIRSTCPREILTKICLFTRPASQYLFPDSSKNSKKHILNGEELMKWWGFILDRLLIECFQNDTQAKLRIPGEDPARVRSYLRGMKYPLWQVGDIFTSKENSLAVYNIPLFPDDPKARFIHQLAEEDRLLKVSLSSFWIELQERQEFKLSVTSSVMGISGYSLATPSLFPSSADVIVPKSRKQFRAIKKYITGEEYDTEEGAIEAFTNIRDFLLLRMATNLQSLTGKREHRERNQPVPASNINTLAITMLKPRKKAKALPKT”, the “soluble on expression in E. coli” value is listed as “soluble”. As for “MGSDKIHHHHHHMENSQQHTDFRQRLELLIGSEKPYAWAARNGLNKGSFTNMWYKGGVPRIGTAQKIAANSGCRVEWLLYGEGPMQDECAQAHDAPMPAGLPALSPLADADEHEVPAGVQEEFCFIPRYNLKASAGFGTSAAGEQPMFYMAFRRYWVKNYLNASPRNLVVISVKGDSMSGVLEDRDTILVNTAERHPGEGLFVIRIGDDIFVKQLQRLPGGAVQVKSANPLYETFTVDLSRASGEFEVIGRVVWFGRQIA”, the “soluble on expression in E. coli” value was “not soluble”. In the case of “MNKFIAAEAAECIGCHACEIACAVAHNQENWPLSHSDFRPRIHVVGKGQAANPVACHHCNNAPCVTACPVNALTFQSDSVQLDEQKCIGCKRCAIACPFGVVEMVDTIAQKCDLCNQRSSGTQACIEVCPTQALRLMDDKGLQQIKVARQRKTAAGKASSDAQPSRSAALLPVNSRKGADKISASERKTHFGEIYCGLDPQQATYESDRCVYCAEKANCNWHCPLHNAIPDYIRLVQEGKIIEAAELCHQTSSLPEICGRVCPQDRLCEGACTLKDHSGAVSIGNLERYITDTALAMGWRPDVSKVVPRSEKVAVIGAGPAGLGCADILARAGVQVDVFDRHPEIGGMLTFGIPPFKLDKTVLSQRREIFTAMGIDFHLNCEIGRDITFSDLTSEYDAVFIGVGTYGMMRADLPHEDAPGVIQALPFLTAHTRQLMGLPESEEYPLTDVEGKRVVVLGGGDTTMDCLRTSIRLNAASVTCAYRRDEVSMPGSRKEVVNAREEGVEFQFNVQPQYIACDEDGRLTAVGLIRTAMGEPGPDGRRRPRPVAGSEFELPADVLIMAFGFQAHAMPWLQGSGIKLDKWGLIQTGDVGYLPTQTHLKKVFAGGDAVHGADLVVTAMAAGRQAARDMLTLFDTKAS”, the “soluble on expression in E. coli” value is listed as “not soluble”.

Consider “MRVAVTGTPGTGKTTATGRLDTALDVAHLNDLVGTEGLYDGVDADRGSKIVDVDAVRDHFAGREDVLVESHLAHRLDDLDAVVVLRCAPETLATRLQDRGDSPEKAAENADSEALAIILSEAVRGHGADAVYEIDTTDRSPDAVAAAIQAVLDGDREPSAGTVDYTDYV”, for which the “soluble on expression in E. coli” value was “not soluble”. With “MGSDKIHHHHHHMVDADQLRQWGRKVIDTERNALDNLYQYVDSSEFAKACQLILACTGKVIVMGMGKSGHIGNKISATLASTGTPAFFVHPGEASHGDLGVLSENDIVLAISNSGEASEILTLMPVIKRMGLPVIAVTGKPESNMAKHSVVHLCIEVPEEACPLGLAPTSSTTATLVMGDALAVALLQARGFTKDDFALSHPGGSLGRKLLLKVSDVMHKGDDLPLVAEDICITEALYEISKKGLGMTGVVNSQGMLVGIFTDGDLRRVIDAEINLRKTSISEVMTHGCVTVSEGILAAQALKVMDEKEINGLIVTDEQQKPIGALNMLDMVKAGVI”, the “soluble on expression in E. coli” value was “not soluble”. Regarding “MSRRRIRKFERPEEALLHLLDAAGIYRVGSRVWLHKPRVRELGFQYLAVETLVREYALAAEREYRGSVVYSKVYGGREYKILLGRGEEVAEASLADPSTVQRLLFSWRHLEELLPSPPLPAFVVDLSLKFMHTEEELSKLRLQIAVALSEVRKYLWDPHLVLTNMDPQTSGWISEVLGDNKVTISQSKPSEILWSMDADRVVILRPDAPQPLSGSEVLAADAFLIGGIVDRIPRPGVSRILDNLVPWGVPRRIELRGSVAGVPERINRIVEILLKARYKYPGNLEKAIITSMTKKDVLTRVYSEIIKRGRRVGSELVVEWSLYEDLSSWLPLTPEDFMLAAKRARARIEGAPRRDNALEHHHHHH”, the “soluble on expression in E. coli” value was “not soluble”. With “MGSDKIHHHHHHLLLEQTNFRKEVNNIKIFNERNMNNLEYIIPECYADITNIYNNVIVMENIKGLTYNDVKDLDIEKKDIFGKLLMKFGLISILYTSAVHCDIHPGNLFFYINEDVKDKPKYQLGLIDFGIVSFPNRENQNFYYTFFKNIQIDKDFSKLEDVLRCILCEKDKFKNLDTIKKRLLKETIERNIIETDNKYDLDFFLKLSYTINVYGFTFTKEFNQICLSLQVVENLLKNLLLDIRKTQDEIIETFNNINKLIT”, the “soluble on expression in E. coli” value is on record as “not soluble”. Regarding “MKKLMITQEAGVATVLIKNPPVNILTIDLINELNAFILSLKDDRETKVVVFKSFHEAFFIAHLDLNVINGTSGGQAASIEFNHMIANIKAMKQLSIAVVDGVARGGGNEFVMACDLAYGTENSAFAQPELYINIPTGGQGAVQFARRLGKGKALQALLTGADFTAQQAETLNIITQFVLKAELDVFLAQLLSVIVGWEIRDIVMYKEIIAASIKDEAVGTELELRYFLERAREEKTQTIIAAFLKHGGQTEREAKDMQGIFVDTAAELSK”, the “soluble on expression in E. coli” value is given as “not soluble”. In the case of “MTSGANSSGSYLPSEIRSSKIDDNYLKELNEDLKLRKQELLEMLKPLEDKNNLLFQKLMSNLEEKQRSLQIMRQIMAGKGCEESSVMELLKEAEEMKQNLERKNKMLRKEMEMLWNKTFEAEELSDQQKAPQTKNKADLQDGKEKQQRKMEWVKYQEQNNILQNDFHGKVIELRIEALKNYQKANDLKLSLYLQQNFEPMQAFLNLPGSQGIRIV”, the “soluble on expression in E. coli” value is reported as “not soluble”.

Consider “AKRYWNANLDTYHPKNVSQNRALLTIRVFVHNFNPEEGKGLTFVGSPGVGKTHLAVATLKAIYEKKGIRGYFFDTKDLIFRLKHLMDEGKDTKFLKTVLNSPVLVLDDLGSERLSDWQRELISYIITYRYNNLKSTIITTNYSLQREEESSVRISADLASRLGENVVSKIYEMNELLVIKGSDLR”, for which the “soluble on expression in E. coli” value was “soluble”. For “GHGHMHGRLKVKTSEEQAEAKRLEREQKLKLYQSATQAVFQKRQAGELDESVLELTSQILGANPDFATLWNCRREVLQHLETEKSPEESAALVKAELGFLESCLRVNPKSYGTWHHRCWLLSRLPEPNWARELELCARFLEADERNFHCWDYRRFVAAQAAVAPAEELAFTDSLITRNFSNYSSWHYRSCLLPQLHPQPDSGPQGRLPENVLLKELELVQNAFFTDPNDQSAWFYHRWLLGAGSGRCELSVEKSTVLQSELESCKELQELEPENKWCLLTIILLMRALDPLLYEKETLQYFSTLKAVDPMRAAYLDDLRSKFLLENSVLKMEYA”, the “soluble on expression in E. coli” value is listed as “soluble”.
